Test results as given in patent US20260274928A1.

Biological target: 13-strain panel of SARS-CoV-2 variant lineages (RBDs)
Assay: SPR, Fab on captured His-AviTag RBD, single-cycle kinetics

B1: S2V29-v37.2 Fab (Fab, V domains shown)
VH: EVQLVESGGSVVQPGRALRLSCAASGITFSSFGMYWVRQAPGKGLEWLGYIAYDGSDTYYADSVKGRFTISRDNSKNTLYLQMNSLRIEDTAVYYCAKDYYPLLSYYYGLDVWGQGTTVTVSS
VL: QSVLTQPRSVSGSPGQSVTISCTGTSSDVGAYNYVSWYQQHPGKAPKFMIYDVDQRPSGVPDRFSGSKSGNTASLIISGLQAEDEADYYCSSYAGSYIWVFGGGTQLTVL
  Kd: 0.05 to 5 nM
  median KD: 0.26 nM
